The data set is described as follows: protein stability index of a GFP-peptide fusion (GPS, HEK-293T) (PSI 1-6); higher = more stable.
The mark [1] stands for this setting: treatment: DMSO, c terminus: a fixed tail appended.
The mark [2] stands for this setting: treatment: MLN4924 1 uM, 8 h, c terminus: a fixed tail appended.

± gives the standard deviation.
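Note: 24-mer peptide tiles fused after GFP, lentivirally expressed, FACS-sorted into six equal bins by GFP/DsRed ratio, decoded by Illumina sequencing, PSI is the read-weighted mean bin number.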

Turning to HMFTPKLDKMLDPQVWREAATQVF [SLC6A17], the protein stability index is 2.11 ± 0.24 under setting [1] and 2.25 ± 0.47 under setting [2].

In turn, ESLMALCTDFCLRNLDGTLGYLLD [ZER1] gave a protein stability index under setting [1] of 2.71 ± 0.4 and a protein stability index under setting [2] of 2.94 ± 0.39.

Consider SLYLLLVSCPKSEVRAKFKFSLLN [SPOPL], for which the protein stability index came out at 2.56 ± 1.2 under setting [1] and 2.49 ± 0.74 under setting [2].

As to VMFKIGDLGHVTRISSPQVEEGDS [WEE1], the protein stability index reads like this: under setting [1], 3.44 ± 0.23; under setting [2], 3.45 ± 0.37.

For AVATIVKPLSAIPQPTITKQEVI [HNF4A], the protein stability index runs as follows: (treatment: DMSO, c terminus: native) 2.43 ± 0.28; (treatment: MLN4924 1 uM, 8 h, c terminus: native) 2.37 ± 0.19.

MLSLKKYLTEGLLQFTILLSLIGV [NFE2L1] gave a protein stability index under setting [1] of 3.33 ± 0.27 and a protein stability index under setting [2] of 2.82 ± 0.47.

Regarding KCPWMEGGEMSPQVETSIEGTIPF [INTS4], the protein stability index stood at 4.08 ± 0.27 under setting [1] and 4.03 ± 0.2 under setting [2].

On to MASRAGPRAAGTDGSDFQHRERVA [JAGN1], for which the protein stability index stood at 4.67 ± 0.31 under setting [1] and 4.7 ± 0.13 under setting [2].

For PPPPPGPPPPPGLPSDGDHQVPTT [WASL], the protein stability index worked out at 5.48 ± 0.26 under setting [1] and 5.63 ± 0.21 under setting [2].

For the sequence RRNEETPEEGQQPWLCGESFTLAD [GDAP1], the protein stability index reads like this: under setting [1], 5.02 ± 0.13; under setting [2], 4.99 ± 0.3.

Consider FLPVDTSNNNGRIKQLRSGGTPIR [PTPRD], for which the protein stability index is 3.33 ± 0.3 under setting [1] and 3.51 ± 0.063 under setting [2].

As to TSRWSSMEIMEAYSVARQFNLTPP [KCNAB2], the protein stability index runs as follows: under setting [1], 2.57 ± 0.22; under setting [2], 2.84 ± 0.084.

For the sequence QEAMKRLRGAKAFRLPGLSRRERE [FCHO1], the protein stability index is 3.91 ± 0.25 under setting [1] and 4.13 ± 0.2 under setting [2].

For the sequence SLVMGSQTESALSKKLRAILPKQS [LCOR], the protein stability index runs as follows: under setting [1], 2.71 ± 0.21; under setting [2], 2.95 ± 0.37.

For KLPPYLIFCIKRFTKNNFFVEKNP [USP39], the protein stability index is 3.02 ± 0.12 under setting [1] and 2.75 ± 0.4 under setting [2].

With PDFYKQSSPNLQVSSDGTLKYMEV [PCDHGC5], the protein stability index is, setting by setting: under setting [1], 3.4 ± 0.16; under setting [2], 3.39 ± 0.45.

As for DLNSKGKKREFRFHPIKETVVEEP [INTS3], the protein stability index came to 3 ± 0.65 under setting [1] and 3.64 ± 0.53 under setting [2].

Consider RGDIFERIVHLQETCDLGKIKPEA [NLN], for which the protein stability index was found to be 3.59 ± 0.37 under setting [1] and 3.6 ± 0.29 under setting [2].

Turning to QVFLDRINRADYCPECYPDNPANR [TOR1AIP2], the protein stability index is, setting by setting: under setting [1], 2.76 ± 0.33; under setting [2], 2.9 ± 0.28.

VTVKDETATMKDLEAEVKDTTRVE [R3HDM1] yielded a protein stability index under setting [1] of 5.33 ± 0.17 and a protein stability index under setting [2] of 5.56 ± 0.053.

Sequence VRVALDYEAGQVTLHNAQTQEPIF [TRIM15] yielded a protein stability index under setting [1] of 2.29 ± 0.33 and a protein stability index under setting [2] of 2.51 ± 0.33.

TVQGKKGVYMTDITPQGVAMRAGV [PDZK1] came in with a protein stability index under setting [1] of 3.12 ± 0.079 and a protein stability index under setting [2] of 3.32 ± 0.25.

The sequence KHGSLNRYHNSHPLRERARKLSQG [YJU2B] gave a protein stability index under setting [1] of 3.73 ± 0.19 and a protein stability index under setting [2] of 3.84 ± 0.12.

Take GDDQPSETDHLSMEEEDPMPRQIS [TPRG1]: the protein stability index under setting [1] was 5.47 ± 0.17 and the protein stability index under setting [2] was determined as 5.64 ± 0.22.

Take NARAQQRAAAQQRRSFLNAHHRSG [GNAS]: the protein stability index is 4.28 ± 0.32 under setting [1] and 4.36 ± 0.14 under setting [2].

As for FVENGHSESSGQTHLEGDTVQIIC [CFHR2], the protein stability index under setting [1] was found to be 3.21 ± 0.38 and the protein stability index under setting [2] is 3.67 ± 0.37.

Turning to KINKIRWLPQQNAAYFLLSTNDKT [PPP2R2B], the protein stability index was found to be 2.69 ± 0.26 under setting [1] and 2.54 ± 0.039 under setting [2].

In turn, LGLAGRCLTLTPRPATEAELLTCH [HDAC6] came in with a protein stability index under setting [1] of 2.86 ± 0.26 and a protein stability index under setting [2] of 2.7 ± 0.4.

On to PDHQVPYGHDYPRAAYQQVIQPAL [TRAF3IP2], for which the protein stability index under setting [1] worked out at 3.48 ± 0.29 and the protein stability index under setting [2] worked out at 3.56 ± 0.24.

As for SVVSYTLKDIHDDQDYLHSLGKAR [FLOT1], the protein stability index is, setting by setting: under setting [1], 3.43 ± 0.3; under setting [2], 3.54 ± 0.28.

IAAPHAGANVKPRNSTPPSLARNP [ZC2HC1A]: the protein stability index worked out at 4.35 ± 0.12 under setting [1] and 4.48 ± 0.25 under setting [2].

Regarding SSKAHTSRFISANLPCNKFKNRLV [PTPRD], the protein stability index reads like this: under setting [1], 2.58 ± 0.35; under setting [2], 2.59 ± 0.26.

Turning to MDPGWGQRDVGWAALLILFAASLL [C2CD2L], the protein stability index turned out to be 2.34 ± 0.24 under setting [1] and 2.26 ± 0.31 under setting [2].

Take RKVKSTITLDGGVLVHVQKWDGKS [FABP4]: the protein stability index reads like this: under setting [1], 3 ± 0.23; under setting [2], 3.15 ± 0.52.

The sequence RVERRFHFSQSLTVIHDFLFSLKE [FAF2] yielded a protein stability index under setting [1] of 2.17 ± 0.15 and a protein stability index under setting [2] of 2.44 ± 0.23.

HPDDRPKLNKPPETLITTIDSSSS [CYB5A]: the protein stability index under setting [1] is 4.85 ± 0.49 and the protein stability index under setting [2] was found to be 5.04 ± 0.32.

Take LHQTVERIHVGKKYGDIPRGIFVV [LSM1]: the protein stability index was 2.76 ± 0.59 under setting [1] and 2.59 ± 0.63 under setting [2].

On to MTLEEFSAGEQKTERMDKVGDALE [GADD45A], for which the protein stability index under setting [1] turned out to be 5.28 ± 0.15 and the protein stability index under setting [2] worked out at 5.36 ± 0.18.

Turning to YQTEQSLRLLVESDINSIRRILDE [KRT34], the protein stability index stood at 2.85 ± 0.18 under setting [1] and 2.97 ± 0.42 under setting [2].

With ETIKCVVVGDNAVGKTRLICARAC [RHOBTB1], the protein stability index was 2.39 ± 0.2 under setting [1] and 2.44 ± 0.21 under setting [2].

In the case of MSELFLHTPSDTGVSFQAISSMAD [PKD2L1], the protein stability index was 3.41 ± 0.15 under setting [1] and 3.61 ± 0.27 under setting [2].

As for FRFDKPKKSRSPASAEAPGDSGER [ZNF511], the protein stability index under setting [1] was 4.95 ± 0.11 and the protein stability index under setting [2] stood at 5.11 ± 0.38.

NKLPEGVPQPARMPYISDKHPRQT [KLHL20]: the protein stability index worked out at 4.69 ± 0.12 under setting [1] and 4.77 ± 0.15 under setting [2].

Consider FWNSPSSPSSSAASSSSPSSSSAV [RHOBTB2], for which the protein stability index reads like this: under setting [1], 4.41 ± 0.14; under setting [2], 4.4 ± 0.089.

Turning to ETTERMKCLYYLYATLDLNAVKYV [PDS5B], the protein stability index worked out at 2.88 ± 0.3 under setting [1] and 3.12 ± 0.47 under setting [2].

On to VKSHLLDYVMTTLLFSDKNVNSNL [TRIP13], for which the protein stability index is, setting by setting: under setting [1], 3.08 ± 0.36; under setting [2], 2.79 ± 0.32.

On to RQTKKMFCDMDKSLLCLLCSNSQE [TRIM43], for which the protein stability index was found to be 2.44 ± 0.15 under setting [1] and 2.86 ± 0.21 under setting [2].

As to RAGEGFIICYSITDRRSFHEVREF [RIT1], the protein stability index is, setting by setting: under setting [1], 3.04 ± 0.81; under setting [2], 2.48 ± 0.71.

For LYPALKGVNTVFHCASPPPSSNNK [NSDHL], the protein stability index reads like this: under setting [1], 3.47 ± 0.064; under setting [2], 3.52 ± 0.16.

For the sequence SEVKEELAGQKDELQLSDLLKQGY [PKD2L1], the protein stability index is 4.81 ± 0.28 under setting [1] and 4.92 ± 0.24 under setting [2].

CPHTPEFSVTGGTEEKSSLLMSCL [RPAIN]: the protein stability index reads like this: under setting [1], 3.38 ± 0.22; under setting [2], 3.49 ± 0.074.

DRGLRGFPKNRVLEGVIDRYQQSK [TRIM9] came in with a protein stability index under setting [1] of 3.98 ± 0.35 and a protein stability index under setting [2] of 4.01 ± 0.29.

Consider QGSLENMSKLLKRQNDILQVVSQG [CD207], for which the protein stability index runs as follows: under setting [1], 3.39 ± 0.22; under setting [2], 3.64 ± 0.22.

Turning to VVAYLALAALSATISFRIYKSVLQ [RTN1], the protein stability index is 2.7 ± 0.66 under setting [1] and 2.87 ± 0.43 under setting [2].

As to MVILISIVIFCLETLPELKDDKDF [KCNA1], the protein stability index reads like this: under setting [1], 3.03 ± 0.71; under setting [2], 2.72 ± 0.52.

For the sequence LILFAWGTLLFYIGGHLVRDNDHP [FUT8], the protein stability index was found to be 2.95 ± 0.19 under setting [1] and 3.36 ± 0.47 under setting [2].

Turning to DLYNWEVAIFGPPNTLYEGGYFKA [UBE2R2], the protein stability index reads like this: under setting [1], 2.66 ± 0.4; under setting [2], 2.32 ± 0.37.

With GTNTVSFYTLSPNSHFSLNVKTLK [PCDHGC5], the protein stability index is, setting by setting: under setting [1], 2.4 ± 0.39; under setting [2], 2.51 ± 0.21.

Take KLEESKQLLKNNEKLITWLNKELN [SASS6]: the protein stability index is, setting by setting: under setting [1], 2.24 ± 0.36; under setting [2], 1.99 ± 0.73.

Consider QAKILQCYRENTHQTLKCSALATQ [CHCHD3], for which the protein stability index turned out to be 3.21 ± 0.31 under setting [1] and 3.33 ± 0.26 under setting [2].

The values are drawn from the supplement of paper PMC10567573.
